Experimental findings from patent publication US6887705B1, “Tyrosine phosphorylated cleavage furrow-associated proteins (PSTPIPs)” (Genentech, Inc., priority 1997, dated 2005) are described below.

Test [1] concerns PSTPIP tyrosine phosphorylation. Nature of the test: Tyrosine phosphorylation of PSTPIP in COS cells co-transfected with V-src. The test is classed as cell-based. The conditions noted are these: COS cells expressing PSTPIP and V-src. The method, then:
Baf3 cells were lysed in 1% Triton, 50 mM HEPES. 10% glycerol and 5 mM EDTA containing 1 μg/ml aprotinin, PMSF, leupeptin and pepstatin were 1 mM Sodium Vanadate and 10 mM Iodoacetic acid. Cells were treated with 0.1 mM Pervanadate for 4 hours before lysis. Immunoprecipitations were performed in the vanadate-containing lysis buffer using 1 μg/ml anti-PSTPIP polyclonal antibody and 400 μg of lysate protein at 4° C. overnight. Western blots were performed using 1 μg/ml affinity purified anti-PSTPIP or 1:5000 dilution of commercial 4G10 anti-phosphotyrosine monoclonal (Upstate Biotech). Signal was detected by HRPO-ECL reagents (Pierce). The C221-S mutant was as previously described (Cheng et al., (1996) supra). The PTP HSCF D197-A mutant was generated using PCR. Mutagenesis primer D197A.F ([…]) (SEQ ID NO:24), corresponding to nucleotide 591, and primer D197A.R ([…]) (SEQ ID NO:25) which corresponds to the stop codon, were used in PCR to generate a fragment that could be cut with Mscl and XbaI. pRK.HA.38 WT, a plasmid which encoded the wild type enzyme under the control of the cytomegalovirus promoter (Cheng et al., (1996) supra), was digested with Clal and Mscl and the resulting 600 bp fragment was ligated with the Mscl-Xbal PCR fragment into the Clal and Xbal sites of the pRK.tkneo. A plasmid encoding the V-src oncogene under the control of the SV40 early promoter was the kind gift of Dr. Art Levinson (CEO-Genetech, Inc.). NIH 3T3 cells and the COS-7 cells were cultured in high glucose DMEM supplemented with 10% FBS, 2 mM L-Glutamine, 10 mM HEPES pH 7.2 and pen-strep.
COS-7 cells were transfected by electroporation. Briefly, 1.5×10^6 COS-7 cells were mixed with 24 μg total DNA in PBS and electroporated at 960 μF, […] (Bio-Rad™ Gene Pulsar™). Following electroporation, cells were seeded in 10 cm dishes and incubated for 3 days. 10-cm dishes of transfected COS cells were washed twice with ice-cold PBS, and lysed in 1 ml of M-RIPA (50 mM Tris 7.4, 1% NP40, 0.25% DOC, 150 mM NaCl, 1 mM sodium ortho-vanadate, 1 mM NaF plus Complete™ Protease Inhibitors (Boehringer Mannheim)). Lysates were incubated for 15 minutes with 100 μl UltraLink Immobilized Protein A/G™ (Pierce) at 4° C., followed by centrifugation for 5 minutes. Supernatants were collected and stored at −70° C. or directly immunoprecipitated. 5 μg of M2 or 12CA5 was added to 500 μl of lysate and incubated overnight at 4° C. Ultralink Protein A/G™ was added and incubation continued for 2 hours at 4° C. The immune complexes were washed 3 times with M-RIPA. The proteins were subjected to SDS-PAGE and transferred to nitrocellulose in 1X Transfer Buffer™ (Novex). Immunoblots were blocked overnight at 4° C. in 3% milk/PBS. To detect Flag-tagged PIP, blots were incubated with 10 μg/ml Bio-M2 (Biotinylated anti-FLAG monoclonal Ab, KODAK) followed by incubation in 10 μg/ml streptavidin-HRP (UBI). To detect HA-tagged PTPhscf, blots were incubated in anti-(HA)-peroxidase (Boehringer Mannheim) as per manufacturer's instructions. To detect phosphotyrosine, blots were incubated in HRP-conjugated 4G10 (anti-phosphotyrosine monoclonal, UBI) as per manufacture's instructions.
COS cells were transfected with a constant amount of either the wild type of W232A mutant of PST PIP and cotransfected with increasing amounts of a plasmid encoding the v-Src tyrosine kinase (Spencer et al, (1997), supra). Plasmid concentrations were equalized with an empty vector containing the CMV promoter. After 48 hours, lysates were prepare and immunoprecipitated with anti-FLAG monoclonal antibody. Precipitates were run on SDS polyacrylamide gels, blotted, and probed with either anti-FLAG antibody or anti-phosphotyrosine antibody as previously described (Spencer et al, (1997), supra). Bound antibodies were visualized using enhanced chemiluminescent reagents.

Another test concerns CHO cells. As to the kind of experiment: Confocal microscopy of PST PIP forms expressed in CHO cells. The format is cell-based, Chinese hamster. The conditions noted are these: transfected CHO cells. Here is the method:
Confocal microscopy was performed as previously described (Spencer et al, (1997), supra). Briefly, CHO cells in chamber slides were transfected using Lipofectamine and the indicated plasmids. 48 hours later, cells were fixed in formaldehyde and stained with an anti-FLAG epitope specific antibody (Kodak) and Fluorescein-Phalloidin (Molecular Probes). Anti-Flag stained cells were washed and stained with Cy3-conjugated sheep anti-mouse IgG. Stained cells were observed using Molecular Dynamics Confocal Microscope™ (2001) and analyzed with ImageSpace™ software (Molecular Dynamics).

B1: D197-A: dominant negative PTP HSCF, active site aspartate mutated to alanine (protein, UniProt Q99952 1-460, looked up, variant D197A)
Tyrosine-protein phosphatase …: MSRSLDSARSFLERLEARGGREGAVLAGEFSDIQACSAAWKADGVCSTVAGSRPENVRKNRYKDVLPYDQTRVILSLLQEEGHSDYINGNFIRGVDGSLAYIATQGPLPHTLLDFWRLVWEFGVKVILMACREIENGRKRCERYWAQEQEPLQTGLFCITLIKEKWLNEDIMLRTLKVTFQKESRSVYQLQYMSWPARGVPSSPDHMLAMVEEARRLQGSGPEPLCVHCSAGCGRTGVLCTVDYVRQLLLTQMIPPDFSLFDVVLKMRKQRPAAVQTEEQYRFLYHTVAQMFCSTLQNASPHYQNIKENCAPLYDDALFLRTPQALLAIPRPPGGVLRSISVPGSPGHAMADTYAVVQKRGAPAGAGSGTQTGTGTGTGARSAEEAPLYSKVTPRAQRPGAHAEDARGTLPGRVPADQSPAGSGAYEDVAGGAQTGGLGFNLRIGRPKGPRDPPAEWTRV
For B1, the “level of tyrosine phosphate on PSTPIP on cotransfection of PTP HSCF forms” value in test [1] was “slightly more efficient dominant negative protein”.

B2: delta 50: PST PIP missing the N-terminal 50 amino acids (protein)
chain: ERYGKELVQIARKAGGQTEMNSLRTSFDSLKQQTENVGSAHIQLALALREELRSLEEFRERQKEQRKKYEAIMDRVQKSKLSLYKKTMESKKAYDQKCRDADDAEQAFERVSANGHQKQVEKSQNKAKQCKESATEAERVYRQNIEQLERARTEWEQEHRTTCEAFQLQEFDRLTILRNALWVHCNQLSMQCVKDDELYEEVRLTLEGCDVEGDINGFIQSKSTGREPPAPVPYQNYYDREVTPLIGSPSIQPSCGVIKRFSGLLHGSPKTTPSAPAASTETLTPTPERNELVYASIEVQATQGNLNSSAQDYRALYDYTAQNSDELDISAGDILAVILEGEDGWWTVERNGQRGFVPGSYLEKLDYKDDDDK
Regarding B2, in the test on CHO cells, the “cellular localization of PST PIP forms (assay for correct folding)” value was “formed large aggregates within the cytoplasm”.

B3: wild type PTP HSCF: PEST-type protein tyrosine phosphatase PTP HSCF, wild type (protein)
chain: MSRHTDLVRSFLEQLEARDYREGAILAREFSDIKARSVAWKSEGVCSTKAGSRLGNTNKNRYKDVVAYDETRVILSLLQEEGHGDYINANFIRGIDGSQAYIATQGPLPHTLLDFWRLVWEFGVKVILMACQETENGRRKCERYWAREQEPLKAGPFCITLTKETTLNADITLRTLQVTFQKEFRSVHQLQYMSWPDHGVPSSSDHILTMVEEARCLQGLGPGPLCVHCSAGCGRTGVLCAVDYVRQLLLTQTIPPNFSLFQVVLEMRKQRPAAVQTEEQYRFLYHTVAQLFSRTLQDTSPHYQNLKENCAPICKEAFSLRTSSALPATSRPPGGVLRSISVPAPPTLPMADTYAVVQKRGASAGTGPGPRAPTSTDTPIYSQVAPRAQRPVAHTEDAQGTTALRRVPADQNSSGPDAYEEVTDGAQTGGLGFNLRIGRPKGPRDPPAEWTRV
modifications: left off: small tags and cut ends
Take B3: the “level of tyrosine phosphate on PSTPIP on cotransfection of PTP HSCF forms” value in test [1] is “decreased level of tyrosine phosphate”.

B4: delta 75: PST PIP missing the N-terminal 75 amino acids (protein)
chain: SFDSLKQQTENVGSAHIQLALALREELRSLEEFRERQKEQRKKYEAIMDRVQKSKLSLYKKTMESKKAYDQKCRDADDAEQAFERVSANGHQKQVEKSQNKAKQCKESATEAERVYRQNIEQLERARTEWEQEHRTTCEAFQLQEFDRLTILRNALWVHCNQLSMQCVKDDELYEEVRLTLEGCDVEGDINGFIQSKSTGREPPAPVPYQNYYDREVTPLIGSPSIQPSCGVIKRFSGLLHGSPKTTPSAPAASTETLTPTPERNELVYASIEVQATQGNLNSSAQDYRALYDYTAQNSDELDISAGDILAVILEGEDGWWTVERNGQRGFVPGSYLEKLDYKDDDDK
Take B4: the “cellular localization of PST PIP forms (assay for correct folding)” value in the test with CHO cells is given as “formed large aggregates within the cytoplasm”.
